# Results as given in the supplement of paper PMC9112550, “Optimization of the antimicrobial peptide Bac7 by deep mutational scanning” (BMC Biology, 2022).
# Tested on: Escherichia coli TOP10
# Assay: shrunken log2 fold change of peptide-encoding DNA abundance (4.5 h post-induction vs induction); higher = less antimicrobial activity (less host growth inhibition)
# Settings: time post-induction: 4.5 h; library: site-saturation at positions 5, 18, 19, 20
# 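Further: peptides expressed intracellularly from a pBAD plasmid library in pooled LB shake-flask culture, induced with 0.3% L-arabinose, DNA abundance read by NGS, three biological replicates, DESeq2 with apeglm shrinkage.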
row,Sequence,shrunken log2 fold change
1,RRIRHRPPRLPRPRPRPWGEPRP,-0.0132
2,RRIRIRPPRLPRPRPRPHVDPRP,-0.294
3,RRIRMRPPRLPRPRPRPPGKPRP,0.978
4,RRIRIRPPRLPRPRPRPGQWPRP,-0.124
5,RRIRQRPPRLPRPRPRPIAIPRP,0.00329
6,RRIRGRPPRLPRPRPRPDIKPRP,0.547
7,RRIRRRPPRLPRPRPRPFRQPRP,-0.0196
8,RRIRKRPPRLPRPRPRPCLSPRP,-0.161
9,RRIRLRPPRLPRPRPRPIICPRP,0.0147
10,RRIRVRPPRLPRPRPRPWVAPRP,-0.00183
11,RRIRKRPPRLPRPRPRPSREPRP,0.555
12,RRIRWRPPRLPRPRPRPRPTPRP,0.547
13,RRIRWRPPRLPRPRPRPTMGPRP,0.272
14,RRIRQRPPRLPRPRPRPRPFPRP,0.149
15,RRIRMRPPRLPRPRPRPLCMPRP,0.0571
16,RRIRQRPPRLPRPRPRPTVPPRP,-0.0488
17,RRIRTRPPRLPRPRPRPYYKPRP,-0.38
18,RRIRHRPPRLPRPRPRPDLLPRP,-0.0324
19,RRIRQRPPRLPRPRPRPETIPRP,-0.0395
20,RRIRRRPPRLPRPRPRPPCLPRP,0.426
21,RRIRARPPRLPRPRPRPKQPPRP,0.516
22,RRIRIRPPRLPRPRPRPDMPPRP,-0.109
23,RRIRLRPPRLPRPRPRPKDTPRP,0.0949
24,RRIRGRPPRLPRPRPRPSQRPRP,0.181
25,RRIRYRPPRLPRPRPRPRNYPRP,-1.26

row,Sequence,shrunken log2 fold change
1,RRIRYRPPRLPRPRPRPDWHPRP,-0.32
2,RRIRMRPPRLPRPRPRPQQRPRP,0.586
3,RRIRSRPPRLPRPRPRPNQRPRP,0.0415
4,RRIRSRPPRLPRPRPRPCMIPRP,-0.389
5,RRIRHRPPRLPRPRPRPRAKPRP,1.14
6,RRIRIRPPRLPRPRPRPGDRPRP,-0.123
7,RRIRMRPPRLPRPRPRPEPKPRP,2.51
8,RRIRRRPPRLPRPRPRPMDYPRP,0.0716
9,RRIRHRPPRLPRPRPRPFQEPRP,-0.00966
10,RRIRARPPRLPRPRPRPNWLPRP,0.275
11,RRIRTRPPRLPRPRPRPPHLPRP,0.0444
12,RRIRYRPPRLPRPRPRPSGFPRP,-0.99
13,RRIRGRPPRLPRPRPRPGAEPRP,1.68
14,RRIRVRPPRLPRPRPRPMIAPRP,0.261
15,RRIRFRPPRLPRPRPRPNPFPRP,0.0605
16,RRIRYRPPRLPRPRPRPFVVPRP,-0.786
17,RRIRERPPRLPRPRPRPPMTPRP,-0.163
18,RRIRERPPRLPRPRPRPFWVPRP,0.0389
19,RRIRFRPPRLPRPRPRPAPAPRP,0.674
20,RRIRSRPPRLPRPRPRPESDPRP,0.306
21,RRIRNRPPRLPRPRPRPMTMPRP,0.0125
22,RRIRHRPPRLPRPRPRPKLDPRP,0.225
23,RRIRIRPPRLPRPRPRPITVPRP,-0.426
24,RRIRGRPPRLPRPRPRPVRGPRP,0.866
25,RRIRQRPPRLPRPRPRPAQPPRP,0.187

row,Sequence,shrunken log2 fold change
1,RRIRSRPPRLPRPRPRPISKPRP,-0.211
2,RRIRNRPPRLPRPRPRPGPLPRP,0.0198
3,RRIRFRPPRLPRPRPRPSHNPRP,-0.782
4,RRIRMRPPRLPRPRPRPNWNPRP,0.344
5,RRIRMRPPRLPRPRPRPARPPRP,1.09
6,RRIRCRPPRLPRPRPRPKEVPRP,-0.289
7,RRIRCRPPRLPRPRPRPMWCPRP,0.148
8,RRIRCRPPRLPRPRPRPADFPRP,1.07
9,RRIRDRPPRLPRPRPRPKMSPRP,-0.0119
10,RRIRHRPPRLPRPRPRPCIAPRP,-0.46
11,RRIRYRPPRLPRPRPRPVCNPRP,-0.649
12,RRIRPRPPRLPRPRPRPARFPRP,0.383
13,RRIRIRPPRLPRPRPRPFGQPRP,-0.259
14,RRIRLRPPRLPRPRPRPYNLPRP,-0.417
15,RRIRSRPPRLPRPRPRPCANPRP,-0.113
16,RRIRKRPPRLPRPRPRPSNCPRP,-0.309
17,RRIRWRPPRLPRPRPRPMICPRP,-0.00725
18,RRIRHRPPRLPRPRPRPSWGPRP,-0.0416
19,RRIRIRPPRLPRPRPRPMEKPRP,-0.229
20,RRIRFRPPRLPRPRPRPLISPRP,-0.178
21,RRIRNRPPRLPRPRPRPQYYPRP,-0.128
22,RRIRQRPPRLPRPRPRPKRDPRP,0.114
23,RRIRARPPRLPRPRPRPMMYPRP,-0.134
24,RRIRDRPPRLPRPRPRPDNAPRP,-0.0954
25,RRIRNRPPRLPRPRPRPWVGPRP,-0.065

row,Sequence,shrunken log2 fold change
1,RRIRARPPRLPRPRPRPYKGPRP,-0.144
2,RRIRDRPPRLPRPRPRPRMYPRP,-0.154
3,RRIRDRPPRLPRPRPRPGIGPRP,0.76
4,RRIRVRPPRLPRPRPRPGCRPRP,0.5
5,RRIRARPPRLPRPRPRPEKTPRP,0.38
6,RRIRIRPPRLPRPRPRPQMTPRP,-0.733
7,RRIRLRPPRLPRPRPRPYKWPRP,-0.0271
8,RRIRWRPPRLPRPRPRPGWHPRP,0.298
9,RRIRCRPPRLPRPRPRPNWLPRP,-0.115
10,RRIRNRPPRLPRPRPRPQYIPRP,-0.0546
11,RRIRTRPPRLPRPRPRPLIMPRP,-0.718
12,RRIRCRPPRLPRPRPRPGRYPRP,0.0533
13,RRIRFRPPRLPRPRPRPVANPRP,-0.1
14,RRIRTRPPRLPRPRPRPHMEPRP,0.0103
15,RRIRNRPPRLPRPRPRPKSMPRP,0.0478
16,RRIRCRPPRLPRPRPRPKDGPRP,0.408
17,RRIRNRPPRLPRPRPRPNVIPRP,-0.261
18,RRIRQRPPRLPRPRPRPSIRPRP,-0.523
19,RRIRTRPPRLPRPRPRPSHRPRP,-0.463
20,RRIRRRPPRLPRPRPRPPDDPRP,0.743
21,RRIRPRPPRLPRPRPRPPNYPRP,-0.0609
22,RRIRCRPPRLPRPRPRPEATPRP,0.95
23,RRIRHRPPRLPRPRPRPGVKPRP,-0.0148
24,RRIRQRPPRLPRPRPRPRRDPRP,0.308
25,RRIRKRPPRLPRPRPRPDEWPRP,0.268

row,Sequence,shrunken log2 fold change
1,RRIRMRPPRLPRPRPRPHVTPRP,-0.441
2,RRIRFRPPRLPRPRPRPMAMPRP,0.102
3,RRIRCRPPRLPRPRPRPYIYPRP,-0.945
4,RRIRSRPPRLPRPRPRPHMQPRP,-0.264
5,RRIRERPPRLPRPRPRPRYRPRP,-0.198
6,RRIRQRPPRLPRPRPRPQKKPRP,-0.214
7,RRIRTRPPRLPRPRPRPIQYPRP,-0.044
8,RRIRPRPPRLPRPRPRPHCDPRP,0.22
9,RRIRVRPPRLPRPRPRPWYNPRP,-0.153
10,RRIRTRPPRLPRPRPRPFSYPRP,-0.0874
11,RRIRRRPPRLPRPRPRPIMRPRP,0.277
12,RRIRTRPPRLPRPRPRPCYVPRP,-0.89
13,RRIRTRPPRLPRPRPRPAYYPRP,0.0141
14,RRIRCRPPRLPRPRPRPAWDPRP,0.235
15,RRIRNRPPRLPRPRPRPYMYPRP,0.0369
16,RRIRKRPPRLPRPRPRPNWIPRP,-0.2
17,RRIRVRPPRLPRPRPRPHLFPRP,0.461
18,RRIRNRPPRLPRPRPRPWDRPRP,-0.0515
19,RRIRPRPPRLPRPRPRPAKLPRP,0.0398
20,RRIRPRPPRLPRPRPRPPQQPRP,0.345
21,RRIRIRPPRLPRPRPRPDYCPRP,-0.163
22,RRIRARPPRLPRPRPRPHWMPRP,0.0379
23,RRIRCRPPRLPRPRPRPQRHPRP,-0.173
24,RRIRWRPPRLPRPRPRPMRMPRP,0.329
25,RRIRVRPPRLPRPRPRPFCPPRP,-0.0571

row,Sequence,shrunken log2 fold change
1,RRIRIRPPRLPRPRPRPENSPRP,0.0169
2,RRIRKRPPRLPRPRPRPWSVPRP,-0.0212
3,RRIRYRPPRLPRPRPRPVWEPRP,-0.3
4,RRIRYRPPRLPRPRPRPMAQPRP,-0.0848
5,RRIRYRPPRLPRPRPRPAKGPRP,-0.183
6,RRIRVRPPRLPRPRPRPVSCPRP,0.182
7,RRIRNRPPRLPRPRPRPFRVPRP,-0.17
8,RRIRCRPPRLPRPRPRPDKRPRP,0.00837
9,RRIRGRPPRLPRPRPRPVHVPRP,0.0798
10,RRIRRRPPRLPRPRPRPIMGPRP,-0.267
11,RRIRQRPPRLPRPRPRPHREPRP,-0.152
12,RRIRFRPPRLPRPRPRPNNPPRP,-0.625
13,RRIRRRPPRLPRPRPRPYENPRP,-0.374
14,RRIRLRPPRLPRPRPRPFSIPRP,-0.158
15,RRIRFRPPRLPRPRPRPFYYPRP,-0.777
16,RRIRHRPPRLPRPRPRPQRYPRP,-0.0589
17,RRIRWRPPRLPRPRPRPYEMPRP,-0.893
18,RRIRLRPPRLPRPRPRPWHAPRP,-0.194
19,RRIRYRPPRLPRPRPRPFWNPRP,-0.178
20,RRIRNRPPRLPRPRPRPPREPRP,0.534
21,RRIRFRPPRLPRPRPRPEIDPRP,0.0823
22,RRIRRRPPRLPRPRPRPQAYPRP,0.0231
23,RRIRFRPPRLPRPRPRPFSNPRP,0.0406
24,RRIRIRPPRLPRPRPRPTDTPRP,-1.86
25,RRIRSRPPRLPRPRPRPHRGPRP,-0.128
